Measured values published in article PMC3141380, “Crystal structure of alkyl hydroperoxidase D like protein PA0269 from Pseudomonas aeruginosa: Homology of the AhpD-like structural family” (BMC Structural Biology, 2011).

Columns and labels:
[1] = target: the molecule itself; experiment: SEC; Superdex 200 26/60, 10 mM HEPES pH 7.5, 0.25 M NaCl, 0.5 mM TCEP; data not shown
[2] = target: the molecule itself; experiment: crystal structure; SeMet protein, space group P6(3)22, one molecule in the asymmetric unit; hexamer built by crystallographic symmetry; crystals from 0.1 M Tris pH 7.6, 0.2 M NaCl, phosphate, 20°C

B1: Alkyl hydroperoxidase D like protein PA0269 from Pseudomonas aeruginosa (natural protein, P. aeruginosa, UniProt Q9I6M1 1-145, looked up)
chain: MTTRLEWAKASPDAYAAMLGLEKALAKAGLERPLIELVYLRTSQINGCAYCVNMHANDARKAGETEQRLQALCVWQETPYFTPRERAALAWTEQLARLSQGALPHGLLDELREHFDDKEIAELTLAVSAINAWNRFGVGMGMQPE
modifications: selenomethionine (four Se-Met residues found in the structure, Se in partial occupancy)
notes: PA0269 (AhpD-like protein), Pseudomonas aeruginosa strain 633 (ATCC 17933D) genomic DNA, full length protein of 145 aa, cloned in pET15b; A native sample with and without the His tag was also made; also called P. aeruginosa AhpD; putative AhpD; source: E. coli BL21 (DE3), M9 selenomethionine media, purified (DE52, Ni-NTA, Superdex 200 gel filtration)
[1]
  stoichiometry N: 5.5
[2]
  stoichiometry N: 6
